According to PMC10397247:
Like-named read-outs stand apart in the source and are kept apart here.

Columns and labels:
Assay in all cases: two-hybrid library CCmax;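 further: natural log of median RNA to DNA barcode read ratio; higher means stronger binding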
[1] = biological target: T1, P2-AA; details: mean of both orientations
T1 chain: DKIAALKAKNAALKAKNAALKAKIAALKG

[2] = biological target: T2, P2-AA-1HGe-T
T2 chain: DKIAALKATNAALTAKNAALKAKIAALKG

[3] = biological target: T3, P2-AA-1HGe-M; details: mean of both orientations
T3 chain: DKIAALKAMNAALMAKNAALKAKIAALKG

[4] = biological target: T4, P2-AA-1HGe-Q; details: mean of both orientations
T4 chain: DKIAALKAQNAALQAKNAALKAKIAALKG

[5] = biological target: T5, P2-AA-1HGe-D; details: mean of both orientations
T5 chain: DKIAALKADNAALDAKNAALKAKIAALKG

[6] = biological target: T6, P2-AA-1HGe-A; details: mean of both orientations
T6 chain: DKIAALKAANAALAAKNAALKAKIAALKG

[7] = biological target: T7, 4H2553-AA; details: mean of both orientations
T7 chain: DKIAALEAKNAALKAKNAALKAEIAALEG

[8] = biological target: T8, 4H3056-AA; details: mean of both orientations
T8 chain: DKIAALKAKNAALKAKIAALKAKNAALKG

[9] = biological target: T9, 4H2198-AA; details: mean of both orientations
T9 chain: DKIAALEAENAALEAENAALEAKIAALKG

[10] = biological target: T10, 4H2611-AA; details: mean of both orientations
T10 chain: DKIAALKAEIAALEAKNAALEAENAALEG

[11] = biological target: T11, 4H2907-AA; details: mean of both orientations
T11 chain: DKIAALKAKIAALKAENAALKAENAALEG

[12] = biological target: T12, 4H3133-AA; details: mean of both orientations
T12 chain: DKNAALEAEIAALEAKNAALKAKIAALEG

[13] = biological target: T13, 4H3413-AA; details: mean of both orientations
T13 chain: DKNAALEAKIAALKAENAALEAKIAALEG

[14] = biological target: T14, 4H3718-AA; details: mean of both orientations
T14 chain: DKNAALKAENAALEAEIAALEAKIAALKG

[15] = biological target: T15, 4H2620-AA; details: mean of both orientations
T15 chain: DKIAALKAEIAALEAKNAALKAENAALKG

[16] = biological target: T16, 4H697-AA; details: mean of both orientations
T16 chain: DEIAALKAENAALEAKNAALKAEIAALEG

[17] = biological target: T17, 4H3162-AA; details: mean of both orientations
T17 chain: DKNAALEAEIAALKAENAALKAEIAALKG

[18] = biological target: T18, 4H32-AA; details: mean of both orientations
T18 chain: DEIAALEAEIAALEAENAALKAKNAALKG

[19] = biological target: T19, 4H2648-AA; details: mean of both orientations
T19 chain: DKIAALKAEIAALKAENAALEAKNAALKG

[20] = biological target: T20, 4H3378-AA; details: mean of both orientations
T20 chain: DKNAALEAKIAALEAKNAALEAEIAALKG

[21] = biological target: T21, 4H3606-AA; details: mean of both orientations
T21 chain: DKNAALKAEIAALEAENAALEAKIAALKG

[22] = biological target: T22, 4H982-AA; details: mean of both orientations
T22 chain: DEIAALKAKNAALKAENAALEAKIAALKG

[23] = biological target: T23, 4H3631-AA; details: mean of both orientations
T23 chain: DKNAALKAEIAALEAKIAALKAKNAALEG

[24] = biological target: T24, 4H3697-AA; details: mean of both orientations
T24 chain: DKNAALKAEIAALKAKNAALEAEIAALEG

[25] = biological target: T25, 4H384-AA; details: mean of both orientations
T25 chain: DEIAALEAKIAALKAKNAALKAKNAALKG

[26] = biological target: T26, 4H1874-AA
T26 chain: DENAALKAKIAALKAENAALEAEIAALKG

[27] = biological target: T27, 4H3588-AA; details: mean of both orientations
T27 chain: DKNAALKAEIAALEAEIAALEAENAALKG

[28] = biological target: T28, 4H340-AA; details: mean of both orientations
T28 chain: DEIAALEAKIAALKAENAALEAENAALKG

[29] = biological target: T29, 4H3865-AA; details: mean of both orientations
T29 chain: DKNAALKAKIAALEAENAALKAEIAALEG

With DEIAALEARNAALRAENAALEAEIAALEG [P1-AA-1HGe-R] the interaction score [1] was 1.49, the interaction score ([2]; mean of both orientations) was 2.2 and the interaction score [3] was 1.7. For the same binder, the interaction score [4] was 2.26, the interaction score [5] was 1.67 and the interaction score [6] was 1.97.

DEIAALEADNAALDAENAALEAEIAALEG [P1-AA-1HGe-D] showed an interaction score [1] of 1.91, an interaction score ([2]; mean of both orientations) of 1.92 and an interaction score [3] of 1.74. For the same binder, the interaction score [4] was 2.03, the interaction score [5] was 0.303 and the interaction score [6] was 1.58.

In the case of DEIAALEASNAALSAENAALEAEIAALEG [P1-AA-1HGe-S], the interaction score [1] is reported as 2.03, the interaction score [2] is reported as 2.01 and the interaction score [3] is reported as 2.01. For the same binder, the interaction score [4] was 2.06, the interaction score [5] was 1.63 and the interaction score [6] was 1.81.

In the case of DENAALKAKIAALKAENAALEAEIAALKG [4H1874-AA], the interaction score [7] is reported as -1.21, the interaction score [8] is reported as -0.229 and the interaction score [9] is reported as -1.15. It also gave an interaction score [10] of -1.33, an interaction score [11] of -1.61 and an interaction score [12] of 1.46. For the same binder, the interaction score [13] was -1.35, the interaction score [14] was -1.5 and the interaction score [15] was 1.59. The interaction score [16] was 1.47, the interaction score [17] was 1.38 and the interaction score [18] was 1.23. It also gave an interaction score [19] of -1.44, an interaction score [20] of -0.221 and an interaction score [21] of 2.08. For the same binder, the interaction score [22] was -1.36, the interaction score [23] was -1.14 and the interaction score [24] was -0.269. For the same binder, the interaction score [25] was -0.973, the interaction score [26] was 1.18 and the interaction score [27] was -1.22. It also gave an interaction score [28] of -1.94 and an interaction score [29] of 1.13.
